Results from patent US20250084179A1 (Xencor, published 2025).
Residue numbers refer to the chain shown, from its start.

T1: Cyno TROP2 (Macaca fascicularis, UniProt A0A2K5UE71)
T1 construct: Construct used in the measurement is not described; also called cynomolgus TROP2
T1 sequence (antigen): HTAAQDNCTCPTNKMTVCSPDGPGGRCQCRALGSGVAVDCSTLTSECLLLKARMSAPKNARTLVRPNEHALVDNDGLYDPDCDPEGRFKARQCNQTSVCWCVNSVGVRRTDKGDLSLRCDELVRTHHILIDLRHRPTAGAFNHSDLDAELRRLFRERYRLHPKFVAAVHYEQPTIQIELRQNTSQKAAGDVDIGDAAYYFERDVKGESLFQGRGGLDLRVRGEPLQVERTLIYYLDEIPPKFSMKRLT

T2: TROP2 (UniProt P09758 27-274, limits assumed)
T2 construct: also called tumor-associated calcium signal transducer 2; TACSTD2
T2 sequence (looked up): T1 sequence (antigen) with V36M, E46K, N67S, V204I

B1: 1F11-1A3.315_H1L1 (antibody, V domains shown)
VH: QVQLVQSGAEVKKPGASVKVSCKASGYTFTRYYMHWVRQAPGQGLEWMGIINPGGGSTGYAQKFQGRVTMTRDTSTSTVYMELSSLRSEDTAVYYCARDDVVAADVFDYWGQGTLVTVSS
VL: not shown
notes: also called 1F11-1A3.315[Trop2]_H1 with L1; copies: 1 + 1
B2: 1F11-1A3.315_H1.10_L1 (antibody, V domains shown)
VH: B1 VH with N52E, G59T
VL: not shown
notes: also called 1F11-1A3.315[Trop2]_H1.10 with L1
B3: 1F11-1A3.315[Trop2]_H1.30_L1 (antibody, V domains shown)
VH: B1 VH with F29L, M34V, N52E, G59L, V102T
VL: not shown
B4: 1F11-1A3.315[Trop2]_H1.28_L1 (antibody, V domains shown)
VH: B1 VH with F29L, N52E, G59L, V102T
VL: not shown
B5: 1F11-1A3.315[Trop2]_H1.31_L1 (antibody, V domains shown)
VH: B1 VH with F29L, M34V, N52E, G59D, A103K
VL: not shown
B6: 1F11-1A3.315_H1.19_L1 (antibody, V domains shown)
VH: B1 VH with F29L, N52E, G59T, A103K
VL: not shown
notes: also called 1F11-1A3.315[Trop2]_H1.19 with L1
B7: 1F11-1A3.315[Trop2]_H1.27_L1 (antibody, V domains shown)
VH: B1 VH with F29L, N52E, G59D, V102T
VL: not shown
B8: 1F11-1A3.315[Trop2]_H1.29_L1 (antibody, V domains shown)
VH: B1 VH with F29L, M34V, N52E, G59D, V102T
VL: not shown
B9: 1F11-1A3.315[Trop2]_H1.26_L1 (antibody, V domains shown)
VH: B1 VH with V102M
VL: not shown
B10: 1F11-1A3.315[Trop2]_H1.25_L1 (antibody, V domains shown)
VH: B1 VH with G59L
VL: not shown
B11: 1C9A4.313 (antibody, V domains shown)
VH: QVQLVQSGAEVKKPGSSVKVSCKASGGTFSNYAIGWVRQAPGQGLEWMGGIVPIFGVADYAQKFQGRVTITADESTSTAYMELSSLRSEDTAVYYCAREGWYLLNYFDYWGQGTLVTVSS
VL: not shown
notes: Phage-derived TROP2 clone; also called 1C9A4.313[TROP2]_H1 with L1
B12: 1B11A3.316 (antibody, V domains shown)
VH: QVQLVQSGAEVKKPGASVKVSCKASGYTFTRYYMHWVRQAPGQGLEWMGIINPGGGSTIYAQKFQGRVTMTRDTSTSTVYMELSSLRSEDTAVYYCARDDVIVDAFDYWGQGTLVTVSS
VL: not shown
notes: Phage-derived TROP2 clone; also called 1B11A3.316[TROP2]_H1 with L1
B13: 1B2A4.312 (antibody, V domains shown)
VH: QVQLVQSGAEVKKPGASVKVSCKASGYTFTGSYMHWVRQAPGQGLEWMGIINPSGESTVYAQKFQGRVTMTRDTSTSTVYMELSSLRSEDTAVYYCARDPGGSWPFSYALDYWGQGTLVTVSS
VL: not shown
notes: Phage-derived TROP2 clone; also called 1B2A4.312[TROP2]_H1 with L1
B14: 1A7_H1.14_L1.71 (antibody, V domains shown)
VH: EVQLLESGGGLVQPGGSLRLSCAASGFTFSSYYMSWVRQAPGKGLEWVSTISESGDSTYYADSVKGRFTISRDNSKNTLYLQMNSLRAEDTAVYYCAKSGPGLRQVGFDYWGQGTLVTVSS
VL: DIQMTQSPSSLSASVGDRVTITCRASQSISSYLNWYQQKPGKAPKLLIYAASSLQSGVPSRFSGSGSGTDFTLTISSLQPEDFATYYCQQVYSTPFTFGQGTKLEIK
notes: also called 1A7[CD28]_H1.14_L1.71
B15: 1A7_H1.106_IGKV1-39_L1 (Fab, V domains shown)
VH: B14 VH with S54R
VL: not shown
notes: also called 1A7[CD28]_H1.106 paired with IGKV1-39 germline VL (1F11-1A3.315 L1)
B16: 1A7_H1.129_IGKV1-39_L1 (Fab, V domains shown)
VH: B14 VH with S54R, G55A
VL: not shown
notes: Constant domains not specified for the assay; also called 1A7[CD28]_H1.129 paired with IGKV1-39 germline VL; 1F11-1A3.315 L1 as common light chain
B17: 1A7_H1.130_IGKV1-39_L1 (Fab, V domains shown)
VH: B14 VH with S54R, S57V
VL: not shown
notes: also called 1A7[CD28]_H1.130 paired with IGKV1-39 germline VL (1F11-1A3.315 L1)
B18: 1A7_H1.125_IGKV1-39_L1 (Fab, V domains shown)
VH: B14 VH with S54H, D56L
VL: not shown
notes: also called 1A7[CD28]_H1.125 paired with IGKV1-39 germline VL (1F11-1A3.315 L1)
B19: 1A7_H1.111_IGKV1-39_L1 (Fab, V domains shown)
VH: B14 VH with S54R, G55S
VL: not shown
notes: also called 1A7[CD28]_H1.111 paired with IGKV1-39 germline VL (1F11-1A3.315 L1)
B20: 1A7_H1.114_IGKV1-39_L1 (Fab, V domains shown)
VH: B14 VH with S52A, S54R
VL: not shown
notes: also called 1A7[CD28]_H1.114 paired with IGKV1-39 germline VL (1F11-1A3.315 L1)
B21: 1A7_H1.107_IGKV1-39_L1 (Fab, V domains shown)
VH: B14 VH with G55S, S57V
VL: not shown
notes: also called 1A7[CD28]_H1.107 paired with IGKV1-39 germline VL (1F11-1A3.315 L1)
B22: 1A7_H1.118_IGKV1-39_L1 (Fab, V domains shown)
VH: B14 VH with S52A, S57P
VL: not shown
notes: also called 1A7[CD28]_H1.118 paired with IGKV1-39 germline VL
B23: 1A7_H1.113_IGKV1-39_L1 (Fab, V domains shown)
VH: B14 VH with S54R, G55T
VL: not shown
notes: also called 1A7[CD28]_H1.113 paired with IGKV1-39 germline VL (1F11-1A3.315 L1)
B24: 2C5A3.316 (antibody, V domains shown)
VH: QVQLVQSGAEVKKPGSSVKVSCKASGGTFTTSGISWVRQAPGQGLEWMGGIVPLLGTVNYAQKFQGRVTITADESTSTAYMELSSLRSEDTAVYYCARSGAATDARYGLDYWGQGTLVTVSS
VL: not shown
notes: Phage-derived TROP2 clone; also called 2C5A3.316[TROP2]_H1 with L1
B25: 1A3A4.312 (antibody, V domains shown)
VH: QVQLVQSGAEVKKPGASVKVSCKASGYTFTRHYMHWVRQAPGQGLEWMGIINPGGGATSYAQKFQGRVTMTRDTSTSTVYMELSSLRSEDTAVYYCAREDYAGKWWGMDYWGQGTLVTVSS
VL: not shown
notes: Phage-derived TROP2 clone; also called 1A3A4.312[TROP2]_H1 with L1

What was measured:
Cyno TROP2 = target: T1, Cyno TROP2; test: not stated; bivalent format
TROP2 [1] = target: T2, TROP2; test: not stated; bivalent format
TROP2 [2] = target: T2, TROP2; test: monovalent KD; method not stated
TROP2 [3] = target: T2, TROP2; test: KD; method and format not stated
human CD28 [4] = target: T3, human CD28 (human, UniProt P10747 19-152, limits assumed); test: not stated; value printed beside the name in the 'CD28 Mutations' cell, apparently a reference affinity of this domain
T3 construct: also called Cluster of Differentiation 28; Tp44

human CD28 [5] = target: T3, human CD28; test: Octet, monovalent KD; format of this comparator not stated
human CD28 [6] = target: T3, human CD28; test: Octet, monovalent KD of Fab
human CD28 [7] = target: T3, human CD28; test: another set of experiments; monovalent Fab, method not restated (Octet for the FIG. 35 data)

Row | Binder | Kd (Cyno TROP2) | koff (Cyno TROP2) | kon (Cyno TROP2) | Kd (TROP2 [1]) | koff (TROP2 [1]) | kon (TROP2 [1]) | Kd (human CD28 [6]) | also measured
1 | B1 | 9.9 nM | 0.0021 s⁻¹ | 210000 M⁻¹ s⁻¹ | 6.5 nM | 0.0012 s⁻¹ | 190000 M⁻¹ s⁻¹ | – | Kd (TROP2 [2]): 13 nM
2 | B2 | 1.5 nM | 0.00053 s⁻¹ | 340000 M⁻¹ s⁻¹ | 0.98 nM | 0.00033 s⁻¹ | 330000 M⁻¹ s⁻¹ | – | Kd (TROP2 [2]): 5 nM
3 | B3 | 3.7 nM | 0.00055 s⁻¹ | 150000 M⁻¹ s⁻¹ | 2.2 nM | 0.00037 s⁻¹ | 170000 M⁻¹ s⁻¹ | – | –
4 | B4 | 2.1 nM | 0.00055 s⁻¹ | 270000 M⁻¹ s⁻¹ | 1.9 nM | 0.00036 s⁻¹ | 210000 M⁻¹ s⁻¹ | – | –
5 | B5 | 0.48 nM | 0.00014 s⁻¹ | 300000 M⁻¹ s⁻¹ | 0.43 nM | 0.00013 s⁻¹ | 300000 M⁻¹ s⁻¹ | – | –
6 | B6 | 0.46 nM | 0.0002 s⁻¹ | 450000 M⁻¹ s⁻¹ | 0.25 nM | 0.0001 s⁻¹ | 410000 M⁻¹ s⁻¹ | – | Kd (TROP2 [2]): 2 nM
7 | B7 | 1.2 nM | 0.00047 s⁻¹ | 390000 M⁻¹ s⁻¹ | 0.93 nM | 0.00028 s⁻¹ | 330000 M⁻¹ s⁻¹ | – | –
8 | B8 | 2.1 nM | 0.00038 s⁻¹ | 190000 M⁻¹ s⁻¹ | 2.1 nM | 0.00029 s⁻¹ | 150000 M⁻¹ s⁻¹ | – | –
9 | B9 | 6.2 nM | 0.0015 s⁻¹ | 250000 M⁻¹ s⁻¹ | 4.6 nM | 0.00088 s⁻¹ | 190000 M⁻¹ s⁻¹ | – | –
10 | B10 | 14 nM | 0.0027 s⁻¹ | 190000 M⁻¹ s⁻¹ | 8.5 nM | 0.0014 s⁻¹ | 170000 M⁻¹ s⁻¹ | – | –
11 | B11 | – | – | – | – | – | – | – | Kd (TROP2 [3]): 40 nM
12 | B12 | – | – | – | – | – | – | – | Kd (TROP2 [3]): 54 nM
13 | B13 | – | – | – | – | – | – | – | Kd (TROP2 [3]): 64 nM
14 | B14 | – | – | – | – | – | – | – | Kd (human CD28 [4]): 37 nM; Kd (human CD28 [5]): 38 nM
15 | B15 | – | – | – | – | – | – | 43 nM | –
16 | B16 | – | – | – | – | – | – | 21 nM | Kd (human CD28 [7]): 60 to 70 nM
17 | B17 | – | – | – | – | – | – | 46 nM | –
18 | B18 | – | – | – | – | – | – | 28 nM | –
19 | B19 | – | – | – | – | – | – | 20 nM | –
20 | B20 | – | – | – | – | – | – | 44 nM | –
21 | B21 | – | – | – | – | – | – | 57 nM | –
22 | B22 | – | – | – | – | – | – | 63 nM | Kd (human CD28 [7]): ~400 nM
23 | B23 | – | – | – | – | – | – | 29 nM | –
24 | B24 | – | – | – | – | – | – | – | Kd (TROP2 [3]): 345 nM
25 | B25 | – | – | – | – | – | – | – | Kd (TROP2 [3]): 80 nM
